Patent publication US20150160214A1, “Quantitation of Cellular Adhesion Dynamics Across Immobilized Receptors Under Rheological Shear Flow” (Mayo Foundation for Medical Education and Research, priority 2013, published 2015)
Entries after “also recorded” stand apart in the source; their conditions may differ.

What was measured:
[1] = Secondary structure contribution calculated from CD-spectra (CDNN); format: physicochemical; conditions: calculated from CD-spectra, CDNN
Method: Fluorescence and circular dichroism spectra of A1 and of RCAM A1 were measured to compare the basic spectroscopic properties of the two protein variants (FIG. 13). The fluorescence spectrum of native A1 has a relatively low intensity with λmax of ˜345 nm. In presence of 2 M GdnHCl the fluorescence intensity increases as the interior of the protein becomes solvent accessible and a red shift of the spectrum to ˜351 nm occurs. […] Nevertheless, RCAM A1 is still retains significant secondary structure content in solution; the distribution of which is summarized in Table 1. In the near UV, the CD of disulfide-intact A1 show a well-defined spectral banding pattern between 260 and 300 nm indicating significant tertiary structure content that is absent in RCAM A1.
(§1) Urea and GdnHCl induced unfolding of A1 and of RCAM A1 at 25° Celsius was monitored via CD at 222 nm on an Aviv Biomedical Model 420C circular dichroism spectrometer. A 1 mm quartz cuvette and protein concentrations of 5 or 10 μM were used. Samples were equilibrated in their urea or GdnHCl containing buffer at 25° Celsius overnight. CD-signal was averaged for 5 to 10 min using an integration time of 1 s. CD-spectra were measured at 20° Celsius using 0.1 or 1 mm quartz cells with a step width of 1 nm between 190 and 260 nm with an integration time of 20 s and a bandwidth of 1 nm. CD-spectra in the near UV range (260-360 nm) were recorded using a 5 cm quartz cell with a 120 s integration time. Transition curves and protein spectra were corrected for the CD Signal of the corresponding buffer.

[2] = Acrylamide quenching of tryptophan fluorescence (Stern-Volmer); format: physicochemical; conditions: buffer, 20° Celsius
Method: This was also confirmed via acrylamide induced tryotophan fluorescence quenching performed with an excitation wavelength of 295 nm.
Initially a quenching determination was performed with disulfide-intact A1 at 20° Celsius and at 1° Celsius in order to distinguish between static and collisional quenching. […] Clear evidence for collisional quenching could be obtained for the A1-domain since the Stern-Volmer constant decreased from 2.6±0.03 to 2.2±0.03 M−1, FIG. 16A, ruling out a static quenching mechanism.
Acrylamide quenching of tryptophan was performed using an excitation wavelength of 295 nm. After the addition of a certain amount of buffered acrylamide solution the protein solution was equilibrated for ˜5 min and then a fluorescence spectrum between 320 and 400 nm was recorded. Stern-Volmer constants were determined from the fluorescence intensity at 359 nm using the Stern-Volmer equation as described by Lakowicz (Lakowicz:2006)
where KD is the Stern-Volmer quenching constant and KD-1 is the concentration of acrylamide at which F0/F=2 and 50% of the fluorescence intensity is quenched.

[3] = Irreversible thermal denaturation by CD, intrinsic fluorescence and ANS fluorescence (Example 2); format: physicochemical
Method: The unfolding of disulfide-intact A1 and RCAM A1 was also monitored via CD at 222 nm, intrinsic protein fluorescence at 280 nm/359 nm and ANS fluorescence at 350 nm/495 nm as a function of temperature.
CD thermalscans were recorded between 10 and 95° Celsius at 222 nm with a protein concentration of 1 μM in a 1 cm quartz cell under moderate stirring. Prior to each measurement protein samples were equilibrated at 10° Celsius for 10-15 min in order to obtain a stable baseline. The scanrate for all Thermalscans was 2° Celsius/min. The integration time for each data point was 20 s, the bandwidth 1 nm. All measured CD data were converted into mean molar ellipticities per amino acid residue.
Thermalscans monitoring protein fluorescence were recorded at an emission wavelength of 359 nm after excitation at 280 nm using a protein concentration of 2 μM in a 1 cm quartz cell under moderate stirring. ANS-Thermalscans were recorded at 495 nm after Excitation at 350 nm using 1 μM protein and 100 μM ANS. Prior to any performed thermalscan samples were equilibrated for 10-15 min. The scanrate was 2° Celsius/min. At each temperature between 10 or 20° Celsius and 95° Celsius relative fluorescence intensity was collected for 4 s and averaged.

[4] = GdnHCl- and urea-induced unfolding at 25° C. by circular dichroism (Example 2); format: physicochemical; conditions: GdnHCl, CD
Method: The thermodynamic stability of A1 and of RCAM A1 was determined from GdnHCl and urea induced unfolding measured via CD and FL at 25° Celsius (FIG. 14). […] Complete unfolding of A1 and of RCAM A1 occurs in GdnHCl but not in urea. However, in presence of urea, a small expansion of RCAM A1 compared to A1 in its intermediate state is observed.
as §1

[5] = target: T1, platelet GPIbα (Homo sapiens, UniProt P07359); assay: Platelet adhesion to surface captured disulfide-intact A1 and RCAM A1 under shear flow (Example 2); format: cell-based
T1 construct: endogenous in cells; host or cells: platelets in citrated whole blood of normal healthy volunteer donors
Method: The interaction of disulfide-intact A1 and of RCAM A1 with platelets was studied by immobilizing the proteins via the 6×His-Tag on Cellix biochips in which the internal channel surface was coated with a Cu2+ chelating chemistry. A 5 μM concentration of protein was immobilized in the biochip and citrated whole blood was perfused at a shear rate of 800 s−1 (FIG. 11B). This perfusion was followed by TBS buffer and after red blood cells cleared the channel, the shear was decremented to 100 s−1 or incremented to 9000 s−1 every two minutes at logarithmic intervals. Surface bound platelets were allowed to equilibrate at a given shear rate for 50 s and a 60 s video at 24 frames per second was recorded and analyzed as described in the methods. The internal channel surface lacking immobilized A1 domain was completely inert to platelets.
At each shear rate, platelet mean pause times and mean translocation velocities were calculated from the X-Y trajectories of moving platelets as described in the methods. Approximately 1000 platelet trajectories were analyzed at each shear rate (FIGS. 11B to 11D). The mean pause times were also calculated from the pause time survival fraction obtained from the cumulative integral of the pause time distribution (FIG. 11B) (Thomas:2006). The survival fraction exponentially decreases with faster decay rates as shear increases. Fitting the survival fraction with a bi-exponential decay function results in the apparent rate constants and amplitudes as a function of shear rate (FIG. 11C).
The determination and analysis of platelet pause times and instantaneous translocation velocities over surface captured A1 and RCAM A1 was performed as previously described (Tischer:2013). Here, the inventor used the Cellix Mims Evo syringe pump controlled by VenaFluxAssay (www.cellixltd.com). Vena8™ CGS biochips were custom designed with 800 μm width by 80 μm height microchannels bonded to glass slides with a Cu^2+ chelated PEG surface serviced by Microsurfaces Inc. (www.proteinslides.com/histag.html) to which the A1 and RCAM A1 in TBS were captured by the 6×His-Tag at a total concentration of 5 μM. Citrated whole blood was obtained from the informed consent of healthy volunteer donors with approval from the Mayo Clinic Institutional Review Board and 100 μL was perfused over the surface captured A1 domains at […]. The shear was increased or decreased in a stepwise manner to measure the dynamics of platelet adhesion at high and low shear. After allowing the flow chamber to equilibrate for 50 s at each shear rate, 1 min movies were recorded at 24 frames per second in phase contrast at 200× magnification with 2×2 pixel binning on a Zeiss AxioCam Mrm camera (6.45 μm/px) attached to a Zeiss Axio Observer.D1 inverted microscope. Tracking analysis was performed using MediaCybernetics ImagePro® Premier (www.mediacy.com/index.aspx?page=IP\_Premier) The distance travelled in the direction of flow was calculated from the coordinate data for each platelet as a function of time using √{square root over ((xt−x0)^2)}, where x0 is the coordinates of a platelet on the first frame of the movie and xt is the coordinate on subsequent frames of the movie. These trajectories were differentiated into instantaneous velocities using a Savitzky-Golay algorithm (Savitzky:1964) with a five data point window size and a second order polynomial implemented into a Mathematica (www.wolfram.com/mathematica) notebook written in our lab. Trajectories were retained for statistical analysis if the platelet was present for ≧1 s and travelled a total distance greater than 1 Distance travelled in pixels (px) was converted to (μm) using 6.45 μm/px*2/200=0.0645 μm/px. Pause times were determined by the amount of time (sec) a platelets velocity was 0±4 px/s≅0±0.23 μm/s, within the noise. Data are reported as mean velocities and pause times attained by individual platelets averaged over all platelets analyzed. […]

[6] = Solubility (observation); format: physicochemical
[7] = target: T2, Recombinant human vWF A1-1261 (amino acids D1261-P1471), N-terminal truncated variant (human, UniProt P04275 1261-1471); assay: thermal unfolding by Trp fluorescence, 0.02-300 µM peptide; value at saturating peptide
T2 construct: Lacks the linker residues Q1238-E1260; also called truncated A1
From the text: (§2) The only way to examine such a stabilization using spectroscopy was the measurement of thermal unfolding via fluorescence. Since the N-terminal peptide also contains a single tyrosine residue, the excitation wavelength was changed to λ=295 nm in order to measure tryptophan fluorescence and the effect of the peptide on the unfolding of the A1-domain was observed indirectly. […] Thermal scans were also done in the presence of a peptide with the same amino acid composition, but a scrambled sequence. The inset of FIG. 7A compares the raw fluorescence thermal scans in the presence of 300 μM scrambled and N-terminal peptides. Unfolding in the presence of excess scrambled peptide was equivalent to unfolding in the absence of either peptide. […] Fitting the enthalpy data to a simple single site binding model yields a dissociation constant of ≈46±6 μM.

[8] = target: T2, Recombinant human vWF A1-1261 (amino …); assay: thermal unfolding enthalpy of 2 µM A1-1261 (Trp fluorescence) against peptide concentration, single site binding model
From the text: as §2

[9] = target: T3, Recombinant human vWF A1-1238 (amino acids Q1238-P1471) (human, UniProt P04275 1238-1471); assay: unfolding enthalpy from fluorescence thermal scans of A1-1238 against total peptide concentration
T3 construct: captured on Cu2+ chelate surfaces by the His tag in the flow chamber assays; also called WT A1; disulfide-intact A1; not shown: N-terminal 6xHis-Tag from the Qiagen pQE-9 vector

[10] = target: T2, Recombinant human vWF A1-1261 (amino …); assay: thermal unfolding by Trp fluorescence at 2 °C/min; value at saturating peptide
From the text: as §2

[11] = target: T2, Recombinant human vWF A1-1261 (amino …); assay: thermal unfolding by Trp fluorescence at 2 °C/min; value without peptide
From the text: as §2

[12] = target: T2, Recombinant human vWF A1-1261 (amino …); assay: unfolding enthalpy from fluorescence thermal scans of 2 µM A1-1261 against total peptide concentration
From the text: as §2

[13] = target: T2, Recombinant human vWF A1-1261 (amino …); assay: thermal unfolding by Trp fluorescence, 0.02-300 µM peptide; value without peptide
From the text: as §2

Total number of platelets interacting, relative to disulfide-intact A1 [5]	Velocity of a platelet translocating on the domain ([5]; 1025 s−1)	unfolding enthalpy of A1-1261 without and with saturating peptide [7] [kJ/mol]	Kd [8] [µM]	binding result [9]	EC50 (read off the curve) [12] [µM]	unfolding enthalpy of A1-1261 without and with saturating peptide [13] [kJ/mol]	Molecule	% α-Helix [1] [%]	% β-sheet [1] [%]	Stern-Volmer constant [2] [M⁻¹]	Cooperative thermal unfolding transition ([3]; CD, intrinsic fluorescence and ANS fluorescence)	Temperature at which protein aggregation begins in thermal scan ([3]; absence of urea) [° Celsius]	cm, I ⇄ D [4] [M]	m-value, I ⇄ D [4] [kJ/mol/M]	ΔG^0, I ⇄ D [4] [kJ/mol]	Platelet translocation on surface-immobilized domain ([5]; all applied shear rates, up to 9000 s−1)	Solubility [6]	apparent TM of A1-1261 without and with saturating peptide [10] [° Celsius]	apparent TM of A1-1261 without and with saturating peptide [11] [° Celsius]
less, by approximately half	statistically zero						RCAM A1: vWF A1 domain (Q1238-P1471) with disulfide bond reduced and carboxyamidated; molten globule model of intermediate state	25	22	5.6 ± 0.4	absent	~40	3.83 ± 0.03	−7.49 ± 0.49	28.69 ± 1.89	did not translocate across the surface at all applied shear rates; also recorded: firm adhesion with no platelet translocation	low solubility		
		242	~46	no binding (tested: 100 µM)	~30	197	H-QEPGGLVVPPTDAPVSPTTLYVE-OH (Synthetic peptide; also called free N-terminal peptide; N-terminal linker peptide) [N-terminal peptide (QEPGGLVVPPTDAPVSPTTLYVE) corresponding to vWF residues Q1238-E1260]											55.5	53
